Assay [1] addresses T1, Human LIGHT-214E, full length, expressed on cells (human, UniProt O43557 1-240).
T1 construct: also called membrane LIGHT
Put plainly: flow cytometry, HEK293FF human LIGHT cells. A general note: In flow cytometry, cells or beads pass a laser one at a time.

Assay [2] addresses LIGHT without residues 81-84, stably expressed on EL4 cells (EL4-NC-LIGHT). Nature of the assay: cell-based or functional assay.
Assay [3] addresses T2, Human LIGHT stably expressed on EL4 cells (EL4-LIGHT) (human, UniProt O43557 1-240).
T2 construct: whole, on cells; also called membrane LIGHT
Nature of the assay: flow cytometry, against F19 and F23.

For assay [4], the target named is T2, Human LIGHT stably expressed on EL4 …. Nature of the assay: flow cytometry, EL4-LIGHT cells. How it is done:
The EC50 of the 7 mAbs were calculated from binding to EL4-LIGHT cells (FIG. 1). […] Non-linear regression analysis was performed to determine the functional binding affinity measurement or EC50 for each mAb. A range of functional affinities was observed.

Assay [5] concerns the target Full length LIGHT G188A on HEK293FF cells (Homo sapiens (Human), UniProt O43557 1-240). Nature of the assay: flow cytometry, HEK293FF, mAb at EC50. Here is the method:
(§1) The day of transfection the cells were seeded in a 24-well plate at 0.6×10⁶ cells/well. Lipofectamine 2000 (ThermoFisher scientific), 3 ul, was mixed with 50 μl OptiMEM medium (GIBCO) and then added to 50 μl Opti-MEM medium containing 3 ug plasmid DNA and incubated for 20 min at RT to form DNA-Lipofectamine 2000 complexes which were then added to the HEK293FF cells and incubated at 37° C., 5% CO₂ for 24 hours. For each construct, in duplicate, 0.60×10⁶ cells/well were used in a 96 well round bottom plate. Cells were centrifuged for 3 minutes at 300×g at 4° C., the supernatant discarded and the cells washed with 150 μl FACS buffer (0.5% FBS in phosphate buffered saline). This process was repeated 3 times. […] The wells were washed 3 times as above and 50 μl/well of goat anti-human IgG FITC (1:1500 dilution in FACS buffer, SIGMA F9512-2ML) or goat anti-mouse APC (1/500 dilution in FACS buffer, BDBioscience 550826), as appropriate, was added to the wells and incubated for 30 min at 4° C. protected from the light, with shaking. The cells were then washed as above, resuspended in 100 μl of FACS buffer and binding of the antibodies to the constructs was measured using flow cytometry and a total of 10,000 cells were acquired for each sample. Controls of buffer and secondary antibody only as well as HEK293FF non transfected cells were also used.

The target in assay [6] is Full length LIGHT R189A on HEK293FF cells (Homo sapiens (Human), UniProt O43557 1-240). Nature of the assay: flow cytometry, HEK293FF, mAb at EC50. Here is the method: as §1
Assay [7] addresses Full length LIGHT A190S on HEK293FF cells (Homo sapiens (Human), UniProt O43557 1-240). Nature of the assay: flow cytometry, HEK293FF, mAb at EC50. Here is the method: as §1
The target in assay [8] is Full length LIGHT T191A on HEK293FF cells (Homo sapiens (Human), UniProt O43557 1-240). Nature of the assay: flow cytometry, HEK293FF, mAb at EC50. How it is done: as §1
Assay [9] has as its target Full length LIGHT S192A on HEK293FF cells (Homo sapiens (Human), UniProt O43557 1-240). Put plainly: flow cytometry, HEK293FF, mAb at EC50. Here is the method: as §1
Assay [10] has as its target Full length LIGHT S193A on HEK293FF cells (Homo sapiens (Human), UniProt O43557 1-240). Nature of the assay: flow cytometry, HEK293FF, mAb at EC50. How it is done:
as §1

The target in assay [11] is Full length LIGHT S194A on HEK293FF cells (Homo sapiens (Human), UniProt O43557 1-240). Nature of the assay: flow cytometry, HEK293FF, mAb at EC50. How it is done:
as §1

Assay [12] has as its target Full length LIGHT R195A on HEK293FF cells (Homo sapiens (Human), UniProt O43557 1-240). Put plainly: flow cytometry, HEK293FF, mAb at EC50. How it is done: as §1
The target of assay [13] is Full length LIGHT V196A on HEK293FF cells (Homo sapiens (Human), UniProt O43557 1-240). Nature of the assay: flow cytometry, HEK293FF, mAb at EC50. Here is the method:
as §1

Assay [14] has as its target Full length LIGHT W197A on HEK293FF cells (Homo sapiens (Human), UniProt O43557 1-240). Put plainly: flow cytometry, HEK293FF, mAb at EC50. Here is the method: as §1
In assay [15] the target is Full length LIGHT W198A on HEK293FF cells (Homo sapiens (Human), UniProt O43557 1-240). Put plainly: flow cytometry, HEK293FF, mAb at EC50. Here is the method:
as §1

Assay [16] concerns the target T3, Human LIGHT-32L, on II23 cells (human, UniProt O43557 1-240).
T3 construct: also called II23-LIGHT 32L
T3 chain: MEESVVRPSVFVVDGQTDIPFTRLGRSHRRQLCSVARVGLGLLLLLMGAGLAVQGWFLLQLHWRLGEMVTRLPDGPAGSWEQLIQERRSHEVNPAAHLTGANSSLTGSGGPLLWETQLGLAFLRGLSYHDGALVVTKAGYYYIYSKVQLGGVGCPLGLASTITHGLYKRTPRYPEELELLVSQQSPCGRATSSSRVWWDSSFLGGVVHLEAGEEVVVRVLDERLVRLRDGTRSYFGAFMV
Nature of the assay: flow cytometry on II23-LIGHT 32L cells, 4 ug mAb in 100 uL, goat anti-human Fc gamma-PE; signal as % of the commercial anti-LIGHT-PE. How it is done:
The cells were suspended at 1×10⁷ cells/ml and 100 uL aliquots were placed into wells of a 96-well plate, the cells spun down and washed in FACS buffer at 1800 rpm for 2 min. The cells were blocked with 1:100 dilution of anti-CD16/CD32 (eBioscience, San Diego, USA) in FACS buffer for 20 min at room temperature and then washed 1× in FACS buffer at 1800 rpm for 2 min. The cells were then resuspended in 100 uL FACS buffer+4 ug anti-membrane LIGHT mAbs or anti-LIGHT-PE (eBioscience, lot: E01621-1632) for 30 min in the dark at room temperature, followed by washing 1× in FACS buffer at 1800 rpm for 2 min and then resuspended in 100 uL FACS buffer plus 1:100 goat anti-human Fcγ-PE secondary antibody or no secondary antibody at 4° C. in the dark for 30 min. The cells were again washed 1× in FACS buffer at 1800 rpm for 2 min and fixed in 200 uL 2% paraformaldehyde overnight at 4° C. and read on a flow cytometer.

Assay [17] concerns the target T2, Human LIGHT stably expressed on EL4 …. Put plainly: flow cytometry competition on EL4-LIGHT cells, co-incubation 40 min 4 C; blocked ligand DcR3-Fc-AF647 0.8 ug/ml; displacement is partial. How it is done: (§2) EL4-LIGHT cells were co-incubated with Alexa Fluor 647 conjugated DcR3-Fc (DcR3-Fc-AF647; 0.8 μg/ml) and graded concentrations (31 μg/ml to 128 μg/ml) of anti-membrane LIGHT antibodies (3B04, 03D12 and 02B111) for 40 min at 4° C. A control, of a mAb that binds both soluble and membrane LIGHT was included (F19 from EP2292663). The samples were washed three times and flow cytometry analysis was performed. Specific mean fluorescence intensity (MFI) obtained from the binding of DcR3-Fc-AF647 to LIGHT on EL4 cells were used to determine the levels of competition binding.

Assay [18] has the same target. Put plainly: flow cytometry competition on EL4-LIGHT cells, co-incubation 40 min 4 C; blocked ligand DcR3-Fc-AF647 0.8 ug/ml; same IC50 as 0.031ug/ml, second unit printed. How it is done:
as §2

The values below come from US20210284747A1 (CAPELLA BIOSCIENCE, published 2021).

For orientation: EC50 means the concentration at which the effect is half-maximal. A higher EC50 goes with a less potent agent. As usually defined, the IC50 is the point on the concentration scale where inhibition reaches its midpoint.

Chain of Full length LIGHT T191A on HEK293FF cells (O43557 whole entry T191A): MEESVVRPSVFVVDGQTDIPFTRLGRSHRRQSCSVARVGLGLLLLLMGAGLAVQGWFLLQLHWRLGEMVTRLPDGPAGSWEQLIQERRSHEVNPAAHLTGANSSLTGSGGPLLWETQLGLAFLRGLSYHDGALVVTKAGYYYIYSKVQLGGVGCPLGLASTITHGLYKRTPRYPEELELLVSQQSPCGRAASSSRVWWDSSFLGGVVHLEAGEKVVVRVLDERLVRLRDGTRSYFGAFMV
Chain of Full length LIGHT S194A on HEK293FF cells (O43557 whole entry S194A): as the sequence (O43557 whole entry T191A) above, with A191T, S194A counted along it
Chain of Full length LIGHT S192A on HEK293FF cells (O43557 whole entry S192A): as the sequence (O43557 whole entry T191A) above, with A191T, S192A counted along it
Chain of Full length LIGHT S193A on HEK293FF cells (O43557 whole entry S193A): as the sequence (O43557 whole entry T191A) above, with A191T, S193A counted along it
Chain of Full length LIGHT W198A on HEK293FF cells (O43557 whole entry W198A): as the sequence (O43557 whole entry T191A) above, with A191T, W198A counted along it
Chain of Full length LIGHT R189A on HEK293FF cells (O43557 whole entry R189A): as the sequence (O43557 whole entry T191A) above, with R189A, A191T counted along it
T2 sequence (O43557 whole entry): as the sequence (O43557 whole entry T191A) above, with A191T counted along it
Chain of Full length LIGHT A190S on HEK293FF cells (O43557 whole entry A190S): as the sequence (O43557 whole entry T191A) above, with A190S, A191T counted along it
Chain of Full length LIGHT V196A on HEK293FF cells (O43557 whole entry V196A): as the sequence (O43557 whole entry T191A) above, with A191T, V196A counted along it
Chain of Full length LIGHT G188A on HEK293FF cells (O43557 whole entry G188A): as the sequence (O43557 whole entry T191A) above, with G188A, A191T counted along it
Chain of Full length LIGHT W197A on HEK293FF cells (O43557 whole entry W197A): as the sequence (O43557 whole entry T191A) above, with A191T, W197A counted along it
Chain of Full length LIGHT R195A on HEK293FF cells (O43557 whole entry R195A): as the sequence (O43557 whole entry T191A) above, with A191T, R195A counted along it

B1: HVEM-Fc (R&D Systems) (Fc fusion, UniProt Q92956 37-202, looked up)
chain: PALPSCKEDEYPVGSECCPKCSPGYRVKEACGELTGTVCEPCPPGTYIAHLNGLSKCLQCQMCDPAMGLRASRNCSRTENAVCGCSPGHFCIVQDGDHCAACRAYATSSPGQRVQKGGTESQDTLCQNCPPGTFSPNGTLEECQHQTKCSWLVTKAGAGTSSSHWV
notes: unlabelled in the Fab screen; also called biotin-HVEM-Fc; not shown: Fc part of the bought fusion; not described
Regarding B1, the EC50 in assay [1] was 45 nM.

B2: LTβR-Fc (R&D Systems) (Fc fusion, UniProt P36941 28-227, looked up)
chain: SQPQAVPPYASENQTCRDQEKEYYEPQHRICCSRCPPGTYVSAKCSRIRDTVCATCAENSYNEHWNYLTICQLCRPCDPVMGLEEIAPCTSKRKTQCRCQPGMFCAAWALECTHCELLSDCPPGTEAELKDEVGKGNNHCVPCKAGHFQNTSSPSARCQPHTRCENQGLVEAAPGTAQSDTTCKNPLEPLPPEMSGTMLM
notes: also called LTBR-Fc; biotin-LTβR-Fc; not shown: Fc part of the bought fusion; not described
B2 gave an EC50 in assay [1] of 15 nM.

B3: 2B11 chimeric IgG4 mAb (antibody, V domains shown)
VH: EVQLVESGAELVRPGVSVKISCKGSGYTFTDYAIHWVKQSHAKSLEWIGVISTYYGDASYNQKFKGKATMTVDKSSSTAYMELARLTSEDSAIYYCARSRGEYGNYDAMDYWGQGTSVTVSS
VL: DIVLTQSPASLAVSLGQRATISCRASESVDSYGNSFMHWYQQKPGQPPKLLIYRASNLESGIPARFSGSGSRTDFTLTINPVEADDVATYYCQQSNEDPYTFGGGTKLEIK
notes: Chimeric human IgG4 (S-to-P, L-to-E) with human CL, as m1; Often misprinted 2B111; also called Parental 2B11; 2B111
For the molecule B3, in [2], the “IC50, inhibition of IL-8 secretion, HT-29 + EL4-NC-LIGHT cells” value worked out at 0.6 nM. Also, the “binding ratio, mAb to LIGHT trimer” value in [3] is 1 mAb per LIGHT trimer. Moreover, the EC50 in assay [4] is 0.083 nM. Besides, the “% of WT binding” value in [5] is 3%; in assay [6] it was 0%; in assay [7] it was 52%; in assay [8], 1%; in assay [9], 96%; in assay [10] it was 0%. Moreover, the “% of WT binding” value in assay [11] stood at 0%; in assay [12], 78%; in [13] it was 73%; in assay [14] it was 0%; in [15] it was 77%. Besides, in assay [16], the binding result is recorded as “binds”. Besides, the IC50 in [17] was found to be 0.031 µg/mL; in assay [18], 0.214 nM.
